T1: EsCas13d, nuclease-dead (Eubacterium siraeum, UniProt B0MS50, R295A;H300A;R849A;H854A)
T1 sequence: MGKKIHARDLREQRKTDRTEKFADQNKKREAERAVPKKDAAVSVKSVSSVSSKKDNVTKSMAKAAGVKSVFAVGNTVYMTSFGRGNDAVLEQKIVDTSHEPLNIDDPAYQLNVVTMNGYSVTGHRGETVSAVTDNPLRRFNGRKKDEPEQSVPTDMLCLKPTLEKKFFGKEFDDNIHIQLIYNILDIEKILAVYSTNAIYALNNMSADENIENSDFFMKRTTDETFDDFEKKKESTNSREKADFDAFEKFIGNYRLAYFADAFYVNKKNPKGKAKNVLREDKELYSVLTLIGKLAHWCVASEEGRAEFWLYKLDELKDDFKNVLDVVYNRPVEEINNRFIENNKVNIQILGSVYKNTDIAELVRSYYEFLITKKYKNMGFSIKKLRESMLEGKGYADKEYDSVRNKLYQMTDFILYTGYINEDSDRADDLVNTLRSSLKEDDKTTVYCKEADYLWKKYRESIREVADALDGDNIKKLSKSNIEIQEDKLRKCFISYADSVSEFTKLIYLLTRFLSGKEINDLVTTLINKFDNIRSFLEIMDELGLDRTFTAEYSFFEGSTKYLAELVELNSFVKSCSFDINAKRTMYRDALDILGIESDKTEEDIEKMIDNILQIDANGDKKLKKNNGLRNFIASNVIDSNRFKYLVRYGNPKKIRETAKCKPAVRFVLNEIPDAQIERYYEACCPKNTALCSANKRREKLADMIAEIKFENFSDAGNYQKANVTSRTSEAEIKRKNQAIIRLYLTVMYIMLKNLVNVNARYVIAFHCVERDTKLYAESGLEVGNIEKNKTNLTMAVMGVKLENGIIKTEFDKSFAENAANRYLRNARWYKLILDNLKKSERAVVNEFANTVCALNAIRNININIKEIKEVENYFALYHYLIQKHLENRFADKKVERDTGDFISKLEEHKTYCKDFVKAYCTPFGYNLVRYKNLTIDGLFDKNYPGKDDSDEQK

B1: target 3 insG 3' of 7,insG 3' of 2 (mixed)
RNA 1: CACCCGUGCAAAAUUGCAGGGGUCUAAAACGACCUGAAUAUUUCAGAUCAAA
RNA 2: GGGAAUGGAUCCACAUCUACGAAUUCGUUUUUGAUCUGAAAUAUUGCAGGUGCUGCAGAUCGGAAGAGCACACGU
B2: target 3 insG 3' of 8,insA 3' of 6 (mixed)
RNA 1: B1 RNA 1
RNA 2: B1 RNA 2 with U45G, G46U, G49A, U51G, G52U
B3: target 3 U7A,U8C (mixed)
RNA 1: B1 RNA 1
RNA 2: GGGAAUGGAUCCACAUCUACGAAUUCGUUUUUGAUCUGAAAUACACAGGUCUGCAGAUCGGAAGAGCACACGU
B4: target 3 insG 3' of 7,insA 3' of 4 (mixed)
RNA 1: B1 RNA 1
RNA 2: B1 RNA 2 with G50A, U51G, G52U
B5: target 3 insC 3' of 2,insG 3' of 1 (mixed)
RNA 1: B1 RNA 1
RNA 2: B1 RNA 2 with G46C, C47A, A48G, G50U, U51C, G52C, C53G
B6: target 3 A5G,U7A (mixed)
RNA 1: B1 RNA 1
RNA 2: B3 RNA 2 with C44U, A47G
B7: target 3 A11G,A18G (mixed)
RNA 1: B1 RNA 1
RNA 2: B3 RNA 2 with A34G, A41G, C44U, A45U
B8: target 3 G3C,U8G (mixed)
RNA 1: B1 RNA 1
RNA 2: B3 RNA 2 with C44G, A45U, G49C
B9: target 3 C6G,A9G (mixed)
RNA 1: B1 RNA 1
RNA 2: B3 RNA 2 with A43G, C44U, A45U, C46G
B10: target 3 C6A,A18G (mixed)
RNA 1: B1 RNA 1
RNA 2: B3 RNA 2 with A34G, C44U, A45U, C46A
B11: target 3 insC 3' of 22 (mixed)
RNA 1: B1 RNA 1
RNA 2: GGGAAUGGAUCCACAUCUACGAAUUCGUUUCUUGAUCUGAAAUAUUCAGGUCUGCAGAUCGGAAGAGCACACGU
B12: target 3 insG 3' of 5,insG 3' of 5 (mixed)
RNA 1: B1 RNA 1
RNA 2: B1 RNA 2 with G46C, C47A, A48G, U51G, G52U
B13: target 3 insU 3' of 22,insC 3' of 19 (mixed)
RNA 1: B1 RNA 1
RNA 2: GGGAAUGGAUCCACAUCUACGAAUUCGUUUUUUGCAUCUGAAAUAUUCAGGUCUGCAGAUCGGAAGAGCACACGU
B14: target 3 G3U,C6G (mixed)
RNA 1: B1 RNA 1
RNA 2: B3 RNA 2 with C44U, A45U, C46G, G49U
B15: target 3 del1,del4 (mixed)
RNA 1: B1 RNA 1
RNA 2: GGGAAUGGAUCCACAUCUACGAAUUCGUUUUUGAUCUGAAAUAUUCAGUUGCAGAUCGGAAGAGCACACGU
B16: target 3 insA 3' of 10,insC 3' of 5 (mixed)
RNA 1: B1 RNA 1
RNA 2: B1 RNA 2 with U44A, G46U, G49C, U51G, G52U
B17: target 3 insU 3' of 16,insA 3' of 2 (mixed)
RNA 1: B1 RNA 1
RNA 2: B1 RNA 2 with G38U, A39G, U42A, A43U, U44A, G46U, G52A
B18: target 3 insA 3' of 10,insC 3' of 4 (mixed)
RNA 1: B1 RNA 1
RNA 2: B1 RNA 2 with U44A, G46U, G50C, U51G, G52U
B19: target 3 insC 3' of 3,insC 3' of 3 (mixed)
RNA 1: B1 RNA 1
RNA 2: B1 RNA 2 with G46C, C47A, A48G, G50C, U51C, G52U
B20: target 3 U20C,U22A (mixed)
RNA 1: B1 RNA 1
RNA 2: B3 RNA 2 with U30A, U32C, C44U, A45U
B21: target 3 insA 3' of 8,insU 3' of 6 (mixed)
RNA 1: B1 RNA 1
RNA 2: B1 RNA 2 with U45A, G46U, A48U, G49A, U51G, G52U
B22: target 3 insA 3' of 8,insG 3' of 2 (mixed)
RNA 1: B1 RNA 1
RNA 2: B1 RNA 2 with U45A, G46U
B23: target 3 insA 3' of 6 (mixed)
RNA 1: B1 RNA 1
RNA 2: GGGAAUGGAUCCACAUCUACGAAUUCGUUUUUGAUCUGAAAUAUUCAAGGUCUGCAGAUCGGAAGAGCACACGU
B24: target 3 insU 3' of 4 (mixed)
RNA 1: B1 RNA 1
RNA 2: B23 RNA 2 with A48G, G49U
B25: target 3 U2G,C16U (mixed)
RNA 1: B1 RNA 1
RNA 2: B3 RNA 2 with C36U, C44U, A45U, U50G
B26: target 3 insA 3' of 6,insG 3' of 5 (mixed)
RNA 1: B1 RNA 1
RNA 2: B1 RNA 2 with G46C, C47A, U51G, G52U
B27: target 3 insU 3' of 13,insU 3' of 5 (mixed)
RNA 1: B1 RNA 1
RNA 2: B1 RNA 2 with A40U, U42A, A43U, U44A, G46U, G49U, U51G, G52U
B28: target 3 insA 3' of 8,insA 3' of 6 (mixed)
RNA 1: B1 RNA 1
RNA 2: B1 RNA 2 with U45A, G46U, G49A, U51G, G52U
B29: target 3 insA 3' of 4,insA 3' of 2 (mixed)
RNA 1: B1 RNA 1
RNA 2: B1 RNA 2 with G46C, C47A, A48G, G49A, G52A
B30: target 3 insC 3' of 11,insC 3' of 5 (mixed)
RNA 1: B1 RNA 1
RNA 2: B1 RNA 2 with U42C, A43U, U44A, G46U, G49C, U51G, G52U
B31: target 1 C2G,A18C (mixed)
RNA 1: CACCCGUGCAAAAAUGCAGGGGUCUAAAACUGAGCGGAUAACCUCUCUAUGG
RNA 2: GGGAAUGGAUCCACAUCUACGAAUUCGUACCAUCGAGAGGUUAUCCGCUGACCGAGAUCGGAAGAGCACACGU
B32: target 1 complement block 4-13 (mixed)
RNA 1: B31 RNA 1
RNA 2: GGGAAUGGAUCCACAUCUACGAAUUCGUACCAUAGAGACCAAUAGGCGUCACCGAGAUCGGAAGAGCACACGU

Residue numbers refer to the chain shown, from its start. Names may count otherwise.

The target of this series is T1, EsCas13d, nuclease-dead. Kind of series: crRNA (strand 1, pre-loaded); Mg2+; 40 mM Tris-HCl pH 7.5, 150 mM NaCl, 6 mM MgCl2, 1 mM DTT, 0.1% Tween-20, 0.2 mg/ml BSA; 25 C; 10 min per concentration, then washed. Particulars: tags: His6-TwinStrep-SUMO cleaved; N-terminal SNAP kept (SNAP-Surface 488); label: 3' end held by stalled T7 RNA polymerase.
As to B1, the affinity, expressed as Kd, was 32.6 ± 5.4 nM. For the molecule B2, the Kd worked out at 43.5 ± 6 nM. For B3, the dissociation constant (Kd) stood at 59.5 ± 7 nM.

In turn, B4 gave a Kd of 88 ± 17.5 nM. In the case of B5, the Kd was found to be 52 ± 12.5 nM.

As to B6, binding was characterised by a dissociation constant (Kd) of 37 ± 5.5 nM. As for B7, the figure is 70 ± 25 nM; as for B8, 88 ± 16.5 nM; as for B9, 46.5 ± 5.5 nM. As for B10, the figure is 55.5 ± 10.5 nM; as for B11, 21.4 ± 2.3 nM; as for B12, 25.3 ± 5.25 nM. As for B13, the figure is 60.5 ± 15.5 nM. B14 returned a Kd of 56.5 ± 11.5 nM. To B15 belongs 18 ± 2.5 nM; to B16, 74.5 ± 11.5 nM. For the molecule B17, binding was put at a Kd of 16.1 ± 1.9 nM. As for B18, the figure is 90 ± 32 nM; as for B19, 39 ± 4 nM; as for B20, 55 ± 12 nM.

B21 had a Kd of 34.2 ± 3.35 nM. As for B22, the figure is 36.5 ± 8.5 nM. To B23 belongs 7.8 ± 0.65 nM. To B24 belongs 4.39 ± 0.415 nM; to B25, 21.6 ± 2.7 nM; to B26, 5.51 ± 0.325 nM. In turn, B27 showed an equilibrium dissociation constant (Kd) of 106 ± 45.5 nM. As for B28, the figure is 58.5 ± 6.5 nM; as for B29, 33 ± 7 nM. To B30 belongs 88 ± 25 nM. As for B31, the figure is 44 ± 4 nM; as for B32, 55 ± 6 nM.

As a reminder, the Kd is the concentration at which binding is half-saturated. A lower Kd goes with a tighter complex.
